Data on two substances can be found in PMC9445010.

The target in assay [1] is particulate methane monooxygenase (pMMO) trimer (Methylococcus capsulatus (Bath) (endogenous in M. capsulatus (Bath))) (UniProt Q607G3).
For assay [2], the target named is pMMO monomer consisting of PmoA, PmoB, and PmoC (Methylococcus capsulatus (Bath) (endogenous in M. capsulatus (Bath))) (UniProt Q607G3). In words: cryo-EM structure; cryoET with subtomogram averaging of isolated M. capsulatus (Bath) membranes, no detergent; 25 mM PIPES pH 7.3, 250 mM NaCl; single trimer 4.8 Å, 7-particle unit 10 Å, three trimers 12 Å; 3-fold symmetry applied.

The substance “particulate methane monooxygenase (pMMO) trimer (from UniProt Q607G3 1-247; G1UBD1 33-414) (complex)” had a methane oxidation activity of SEC fractions with larger pMMO nanodisc arrays against single particle nanodiscs (13C-methanol by GC/MS, duroquinol reductant, 45 °C) in assay [1] of less than 3 fold.

With “pMMO monomer consisting of PmoA, PmoB, and PmoC (from UniProt Q607G3 1-247; G1UBD1 33-414) (complex)”, the stoichiometry N (as a rule, a count of units in the complex or per binding partner) in assay [2] is 3.
